Assay results published in patent publication US20240108651A1 (THOMAS JEFFERSON UNIVERSITY, published 2024).

T1: human desmoglein 2 (Dsg2) on cells (human, UniProt Q14126 50-1118)
T1 construct: whole, on cells; also called huma Dsg2; hDsg2
T1 sequence (looked up): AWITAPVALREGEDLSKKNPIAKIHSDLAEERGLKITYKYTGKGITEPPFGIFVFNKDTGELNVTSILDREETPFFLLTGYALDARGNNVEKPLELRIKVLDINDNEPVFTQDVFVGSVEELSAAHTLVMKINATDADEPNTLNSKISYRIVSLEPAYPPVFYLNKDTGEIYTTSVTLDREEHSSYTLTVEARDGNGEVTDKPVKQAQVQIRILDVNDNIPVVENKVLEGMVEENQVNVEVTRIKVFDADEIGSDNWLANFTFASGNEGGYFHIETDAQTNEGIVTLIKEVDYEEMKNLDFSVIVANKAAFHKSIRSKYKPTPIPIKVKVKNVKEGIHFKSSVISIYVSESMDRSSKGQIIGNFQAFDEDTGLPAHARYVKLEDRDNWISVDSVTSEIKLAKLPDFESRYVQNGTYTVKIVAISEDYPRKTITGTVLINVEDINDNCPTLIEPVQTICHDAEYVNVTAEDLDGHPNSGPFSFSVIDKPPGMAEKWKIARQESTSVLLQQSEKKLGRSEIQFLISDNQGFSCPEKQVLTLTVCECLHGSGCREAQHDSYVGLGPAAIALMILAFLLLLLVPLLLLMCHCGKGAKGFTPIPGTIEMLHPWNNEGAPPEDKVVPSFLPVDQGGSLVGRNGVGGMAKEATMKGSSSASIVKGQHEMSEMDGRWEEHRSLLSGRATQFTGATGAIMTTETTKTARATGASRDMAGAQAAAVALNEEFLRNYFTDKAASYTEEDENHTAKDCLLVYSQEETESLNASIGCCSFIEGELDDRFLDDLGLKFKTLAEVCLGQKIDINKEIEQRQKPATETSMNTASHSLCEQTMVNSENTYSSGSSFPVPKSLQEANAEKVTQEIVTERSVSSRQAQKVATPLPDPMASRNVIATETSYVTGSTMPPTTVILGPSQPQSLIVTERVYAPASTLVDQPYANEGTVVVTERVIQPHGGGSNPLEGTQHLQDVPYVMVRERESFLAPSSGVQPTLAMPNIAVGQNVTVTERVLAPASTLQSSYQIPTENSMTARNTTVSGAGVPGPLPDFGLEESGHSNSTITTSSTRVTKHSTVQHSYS


Biological target: T1, human desmoglein 2 (Dsg2) on cells
Assay: legend of FIG. 5: Dsg2 domain scheme; immunoblot and immunostaining of A431 SCC cells
Description: P, Pro-region; EC, Extracellular Domain; TM, Transmembrane; IA, Intracellular Anchoring, ICS, Intracellular Cadherin Segment; LD, Linker Domain; RUD, Repeat Unit Domain; TD, Terminal Domain. 10D2 recognizes EC1 while 6D8 recognizes EC4. For FIG. 5B and FIG. 5C, A431 SCC was immunoblotted (FIG. 5B) or immunostained (FIG. 5C) with mAbs 6D8 and 10D2.

binding result | Binder
binds | mAb 10D2 (antibody, V domains shown, Monoclonal antibody from a hybridoma; also called 10D2 Antibody; 10D2 mAb) VH: EVQLQQSGPELVNPGASVKMSCKASGYSFTSYILHWVKQKPGQGLEWIGYINPYNDATKYNEKFKGKATLTSDKSSSTAYMELSSVTSEDSAVYYCCSMITTAYWAYWGQGTLVTVSA VL: NIMMTQSPSSLTVSAGEKVTMSCKSSQSILYGSTQKNYLAWYQQKPGQSPKLLIYWASTRESGVPDRFTGSGSGTDFTLTISSVQAEDLAVYYCHQYLSSYTFGGGTKLEIK
binds | mAb 6D8 (antibody, V domains shown, Monoclonal antibody from a hybridoma; also called 6D8 Antibody; 6D8 mAb) VH: QIQLVQSGPELKKPGETVKISCKASGYTFTNYGMNWVKQAPGRGLKWMGWINTYTGNPTYADDFKGRFDFSLETSASTAYLQINNLKNEDMAIYFCARDRGNSFDYWGQGTTLTVSS VL: DIQMTQSPASLSVSVGETVTITCRASENIYSNLAWYQQKQGKSPQLLVYIAINLADGVPSRFSGSGSGTQYSLKINSLQSEDFGNYYCQHFWGTPRTFGGGTKLEIK
